Measured values: patent US20220332804A1 (CSL INNOVATION, published 2022)
Positions count from the first letter of the chain named.

Assays:
Experiment in all cases: SPR, antibody captured, C2 as analyte;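 further: biacore SPR at 37 °C, anti-C2 mAbs captured via goat anti-human IgG on CM5 chips, double-referenced sensorgrams fit to a 1:1 kinetic or steady-state model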
human C2 N621A = target: T1, human C2 N621A (human, UniProt P06681 21-752)
T1 sequence: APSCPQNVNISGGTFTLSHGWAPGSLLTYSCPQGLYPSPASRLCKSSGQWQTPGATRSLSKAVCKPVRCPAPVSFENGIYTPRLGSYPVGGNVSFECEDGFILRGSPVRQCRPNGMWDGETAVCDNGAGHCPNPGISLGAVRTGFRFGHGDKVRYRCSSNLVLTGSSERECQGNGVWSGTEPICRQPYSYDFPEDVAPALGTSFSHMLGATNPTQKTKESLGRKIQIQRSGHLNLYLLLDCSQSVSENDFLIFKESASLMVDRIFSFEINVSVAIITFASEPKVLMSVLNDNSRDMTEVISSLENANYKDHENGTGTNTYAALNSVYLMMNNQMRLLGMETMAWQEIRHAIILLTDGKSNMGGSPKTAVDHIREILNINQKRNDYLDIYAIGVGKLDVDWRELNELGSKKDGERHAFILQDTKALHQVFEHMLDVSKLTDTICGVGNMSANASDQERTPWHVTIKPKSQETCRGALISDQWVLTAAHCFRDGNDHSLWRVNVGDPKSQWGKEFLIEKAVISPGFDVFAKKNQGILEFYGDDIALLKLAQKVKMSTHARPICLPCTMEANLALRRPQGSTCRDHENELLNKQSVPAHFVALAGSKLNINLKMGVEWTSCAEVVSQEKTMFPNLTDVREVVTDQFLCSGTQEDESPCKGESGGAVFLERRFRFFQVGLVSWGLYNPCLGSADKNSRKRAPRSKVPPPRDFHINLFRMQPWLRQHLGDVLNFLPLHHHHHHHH

human C2 D431A = target: T2, human C2 D431A (human, UniProt P06681 21-752)
T2 sequence: T1 sequence with D411A, A601N

human C2 L701A = target: T3, human C2 L701A (human, UniProt P06681 21-752)
T3 sequence: T1 sequence with A601N, L681A

human C2 V722A = target: T4, human C2 V722A (human, UniProt P06681 21-752)
T4 sequence: T1 sequence with A601N, V702A

B1: RF16-226 (antibody, human IgG4 S228P, lambda)
heavy: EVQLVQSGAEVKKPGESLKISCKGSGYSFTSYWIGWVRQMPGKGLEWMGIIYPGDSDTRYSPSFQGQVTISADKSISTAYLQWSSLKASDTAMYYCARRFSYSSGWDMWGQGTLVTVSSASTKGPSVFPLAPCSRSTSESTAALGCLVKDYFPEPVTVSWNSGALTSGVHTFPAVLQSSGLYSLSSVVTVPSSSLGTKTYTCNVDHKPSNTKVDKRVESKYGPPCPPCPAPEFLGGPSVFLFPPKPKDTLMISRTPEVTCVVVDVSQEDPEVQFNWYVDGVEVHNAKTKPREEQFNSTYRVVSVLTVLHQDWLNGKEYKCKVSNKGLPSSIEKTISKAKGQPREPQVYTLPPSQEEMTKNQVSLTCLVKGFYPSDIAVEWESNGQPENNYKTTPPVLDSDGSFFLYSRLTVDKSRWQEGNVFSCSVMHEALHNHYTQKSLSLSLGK
light: SYELTQPPSVSVSPGQTARITCSGDALTSKYVAWYQQKSGLAPLLVIYEDTRRPSGIPAKFSGSSSGSVATLTISGAHGDDEADYYCYSTDASGHQRVFGGGTKLTVLSQPKAAPSVTLFPPSSEELQANKATLVCLISDFYPGAVTVAWKADGSPVKAGVETTKPSKQSNNKYAASSYLSLTPEQWKSHRSYSCQVTHEGSTVEKTVAPTECS
notes: pH-dependent anti-C2 antibody from a phage display library; also called WT
Kd (human C2 N621A): 51.5 nM | Kd (human C2 D431A): 43.4 nM | Kd (human C2 L701A): 165 nM | Kd (human C2 V722A): 95.2 nM
